Patent US20210388081A1 (Memorial Sloan Kettering, published 2021)

T1: FcRL3, overexpressed on 3T3 cells (UniProt Q96P31 18-734, limits assumed)
T1 construct: whole, on cells
T1 sequence (looked up): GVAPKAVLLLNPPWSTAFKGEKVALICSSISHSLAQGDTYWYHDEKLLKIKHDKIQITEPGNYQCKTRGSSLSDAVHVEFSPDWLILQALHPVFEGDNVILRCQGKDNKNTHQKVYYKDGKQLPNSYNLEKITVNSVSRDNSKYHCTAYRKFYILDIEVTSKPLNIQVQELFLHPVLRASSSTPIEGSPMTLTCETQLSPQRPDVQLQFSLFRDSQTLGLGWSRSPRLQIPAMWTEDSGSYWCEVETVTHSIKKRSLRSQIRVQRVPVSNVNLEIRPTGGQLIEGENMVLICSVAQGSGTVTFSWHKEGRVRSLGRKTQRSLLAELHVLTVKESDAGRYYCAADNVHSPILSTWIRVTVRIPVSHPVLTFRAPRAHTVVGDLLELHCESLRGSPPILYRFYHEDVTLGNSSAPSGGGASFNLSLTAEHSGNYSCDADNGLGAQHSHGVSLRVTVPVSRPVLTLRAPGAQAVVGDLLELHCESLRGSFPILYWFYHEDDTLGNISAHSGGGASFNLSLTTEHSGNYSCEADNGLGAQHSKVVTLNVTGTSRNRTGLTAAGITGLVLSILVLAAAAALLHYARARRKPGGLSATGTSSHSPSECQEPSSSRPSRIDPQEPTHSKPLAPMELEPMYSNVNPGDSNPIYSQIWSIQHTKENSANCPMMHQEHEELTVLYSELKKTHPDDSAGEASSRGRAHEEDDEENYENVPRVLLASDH

T2: FcRL6, overexpressed on 3T3 cells (UniProt Q6DN72 20-434, limits assumed)
T2 construct: whole, on cells
T2 sequence (looked up): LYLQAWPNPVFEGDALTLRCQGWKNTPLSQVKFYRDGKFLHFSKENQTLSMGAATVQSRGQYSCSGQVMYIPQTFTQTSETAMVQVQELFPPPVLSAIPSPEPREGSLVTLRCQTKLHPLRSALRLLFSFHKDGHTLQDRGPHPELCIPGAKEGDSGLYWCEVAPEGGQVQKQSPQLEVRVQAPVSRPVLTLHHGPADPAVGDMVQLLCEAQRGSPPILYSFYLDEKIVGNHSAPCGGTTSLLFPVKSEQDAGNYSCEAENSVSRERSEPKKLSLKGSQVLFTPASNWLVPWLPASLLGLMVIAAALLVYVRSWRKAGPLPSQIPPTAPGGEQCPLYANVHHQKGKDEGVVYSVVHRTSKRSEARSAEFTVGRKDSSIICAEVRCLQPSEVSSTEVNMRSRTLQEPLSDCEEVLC

B1: ET200-110 (scFv)
scFv: QSVLTQPPSASGTPGQRVTISCSGSSSNIGTNGVNWFQQFPGTAPKLLIYTNDQRPSGVPDRFSGSKSGTSASLAISGLQSADEADYYCAVWDHSLNGPVFGGGTKLTVLGSRGGGGSGGGGSGGGGSLEMAQVQLVQSGAEVKKPGSSVKVSCKASGGTFSSYAISWVRQAPGQGLEWMGGIIPIFGTANYAQKFQGRVTITADESTSTAYMELSSLRSEDTAVYYCARGAGFDAFDIWGQGTMVTVSSTSGQAGQHHHHHHGAYPYDVPDYAS
notes: screened as phage clone; entry is VL-linker-VH-His tag-HA tag
B2: ET200-113 (scFv)
scFv: QSVVTQPPSVSAAPGQKVTISCSGSSSNIGNNYVSWYQQLPGTAPKLLIYDNNKRPSGIPDRFSGSKSGTSATLGITGLQTGDEADYYCGTWDSSLSAAYVFGTGTKVTVLGSRGGGGSGGGGSGGGGSLEMAQVQLVQSGAEVKKPGASVKVSCKASGYSFTSYTISWVRQAPGQGLEWMGWVSTYNGLRNYAQNLQGRVTMTTDTLTTTAYMELRSLRSDDTAVYYCVREGSPDYGDFAAFDYWGQGTLVTVSSTSGQAGQHHHHHHGAYPYDVPDYAS
notes: as for B1
B3: ET200-108 (scFv)
scFv: QSVLTQPPSVSAPPGQKVTISCSGSSSNIGNNYVSWYQQFPGTAPKLLIYDNNKRPSGISDRFSGSKSGTSATLGIAGLQTGDEADYYCGTWDTSLSGFYVFGSGTKVTVLGSRGGGGSGGGGSGGGGSLEMAEVQLVQSGAEVKKPGASVKVSCKASGYTFTSYTISWVRQAPGQGLEWMGWISTYNGLTNYAQNLQGRVTMTTDTFTTTAYMELRSLRSDDTAVYYCVREGSPDYGDFASFDYWGQGTLVTVSSTSGQAGQHHHHHHGAYPYDVPDYAS
notes: as for B1
B4: ET200-008 (scFv)
scFv: QSALTQPASVSGSPGQSITISCTGTSSDVGGYNYVSWYQQHPGKAPKLMIYDVSNRPSGVSNRFSGSKSGNTASLTISGLQAEDEADYYCSSYTSSSTSKVFGGGTKLTVLGSRGGGGSGGGGSGGGGSLEMAEVQLVESGGGVVRPGGSLRLSCAASGFTFGDYGMSWVRQAPGKGLEWVSGINWNGGSTGYADSVKGRFTISRDNAKNSLYLQMNSLRAEDTAVYYCARSKYNFHVYYDYWGQGTLVTVSSTSGQAGQHHHHHHGAYPYDVPDYAS
notes: as for B1
B5: ET200-103 (scFv)
scFv: QAVLTQPHSVSESPGKTVTISCTRSSGSIASNYVQWYQQRPGSAPTTVIYEDNQRPSGVPDRFSGSIDSSSNSASLTISGLKTEDEADYYCQSYDSTITVFGGGTKLTVLGSRGGGGSGGGGSGGGGSLEMAQVQLVQSGAEVKKPGSSVKVSCKASGGTFSSYAISWVRQAPGQGLEWMGGIIPIFGTANYAQKFQGRVTITADESTSTAYMELSSLRSEDTAVYYCAGEGYYDSSGYSNGDAFDIWGQGTMVTVSSTSGQAGQHHHHHHGAYPYDVPDYAS
notes: as for B1
B6: ET200-109 (scFv)
scFv: LPVLTQPPSASATPGQRVTISCSGTTSNIGSNTVHWYQQLPGTAPKLLIYNNNQRPSGVPDRFSGSKSGTSASLAISGLRSEDEATYSCATWDDSLSGVVFGGGTKLTVLGSRGGGGSGGGGSGGGGSLEMAEVQLVQSGAEVKKPGSSVKVSCKASGGTFSSYAISWVRQAPGQGLEWMGGIIPIFGTANYAQKFQGRVTITADESTSTAYMELSSLRSEDTAVYYCARDPAYGDYEYDAFDIWGQGTMVTVSSTSGQAGQHHHHHHGAYPYDVPDYAS
notes: as for B1
B7: ET200-106 (scFv)
scFv: SYELTQPPAASGTPGQRVTISCSGGVSNIGSGALNWYQQLPGTAPKLLIYSYNQRPSGVSDRFSGSRSATSASLAISGLQSEDEADYYCATWDDSVNGWVFGGGTKLTVLGSRGGGGSGGGGSGGGGSLEMAEVQLVESGAEVKKPGDSVKVSCKPSGYNFLNYGINWVRQAPGQGLEWMGWISTYTGNTNYAQKLQGRVTFTTDTSTSTAYMEMRSLRSDDTAVYYCARQQGGGWYDVWGQGTLVTVSSTSGQAGQHHHHHHGAYPYDVPDYAS
notes: as for B1
B8: ET200-115 (scFv)
scFv: QSVLTQPPSVSGAPGQRVTISCTGSSSNIGARYDVHWYQQLPGTAPRLLISANYDRPSGVPDRFSGSKSGTSASLAITGLQAEDEADYYCQSYDSSVSAWVFGGGTKVTVLGSRGGGGSGGGGSGGGGSLEMAEVQLVQSGAEVKEPGASVRISCQASGYNFISYYMHWVRQAPGQGLEWMGTINPGSGETDYSQKLQGRVTMTRDPSTGTFDMGLSSLTSGDTAVYYCATGLIRGASDAFNIWGRGTMVTVSSTSGQAGQHHHHHHGAYPYDVPDYAS
notes: as for B1
B9: ET200-112 (scFv)
scFv: QAVLTQPPSASGTPGQRVTISCSGSSSNIGSNTVNWYQQLPGTAPKLLMYSNDQRPSGVPDRFSGSKSGTSASLAISGLQSEDEADYYCAAWDDSLNGYVFAAGTQLTVLSSRGGGGSGGGGSGGGGSLEMAQVQLQQWGAGLLKPSETLSLTCAVYGGSFSGYYWSWIRQPPGKGLEWIGEINHSGSTNYNPSLKSRVTISVDTSKNQFSLKLSSVTAADTAVYYCAREGLDAFDIWGQGTMVTVSSTSGQAGQHHHHHHGAYPYDVPDYAS
notes: as for B1
B10: ET200-116 (scFv)
scFv: QPVLTQPPSVSVSPGQTAAIPCSGDKLGDKFASWYQQKPGQSPVLVIYQDTKRPSGIPERFSGSNSGNTATLTISGTQAMDEADYYCQTWASGIVVFGGGTKLTVLGSRGGGGSGGGGSGGGGSLEMAQVQLQQSGPGLVKPSQTLSLTCAISGDSVSSNSAAWNWIRQSPSRGLEWLGRTYYRSKWYNDYAVSVKSRITINPDTSKNQFSLQLNSVTPEDTAVYYCARERSGWKGFDYWGQGTLVTVSSTSGQAGQHHHHHHGAYPYDVPDYAS
notes: as for B1
B11: ET200-105 (scFv)
scFv: SYVLTQPPSVSVSPGQTASITCSGDRLTNKYVSWYQQKPGQSPVLVIYEDAKRPSGIPARFSGSNSGNTATLTISGTQAMDESEYYCQAWDSSVVVFGGGTKLTVLGSRGGGGSGGGGSGGGGSLEMAEVQLVESGGGLVQPGRSLRLSCAASGFTFDDYAMHWVRQAPGKGLEWVSGISWNSGSIGYADSVKGRFTISRDNAKNSLYLQMNSLRDEDTALYYCAKDRGGGVIVKDAFDIWGQGTMVTVSSTSGQAGQHHHHHHGAYPYDVPDYAS
notes: as for B1
B12: ET200-007 (scFv)
scFv: SYVLTQPLSVSVAPGKTARITCGGNNIGSKTVHWYQQKPGQAPVLVIYYDSDRPSGIPERFSGSNSGNTATLTISRVEAGDEADYYCQVWDSSSDHRVFGGGTKLTVLGSRGGGGSGGGGSGGGGSLEMAQVQLQESGPGLVKPSETLSLTCNVSGYSISSGYFWGWIRQPPGKGLEWIGSIYHSRSTYYNPSLKSRVTISVDTSKNQFSLKLNSVTAADTAVYYCARGYGYFDYWGQGTLVTVSSTSGQAGQHHHHHHGAYPYDVPDYAS
notes: as for B1
B13: ET200-107 (scFv)
scFv: QSVVTQPPSVSAAPGEKVTISCSGSNFNVGNNDVSWYQQLPGAAPKLLIYDNNKRPSGIPDRFSGSKSGTSATLDITGLHSDDEADYYCGTWDSSLNTGGVFGTGTKVTVLGSRGGGGSGGGGSGGGGSLEMAEVQLVQSGAEVKKPGASVKVSCKASGYTFTSYTISWVRQAPGQGLEWMGWISTYNGLTNYAQNLQGRVTMTTDTFTTTAYMELRSLRSDDTAVYYCVREGSPDYGDFASFDYWGQGTLVTVSSTSGQAGQHHHHHHGAYPYDVPDYAS
notes: as for B1
B14: ET200-118 (scFv)
scFv: QAVLTQPASVSGSPGQSITISCTGTSSDVGGYNYVSWYQQHPGKAPKLMIYEVSNRPSGVSNRFSGSKSGNTASLTISGLQAEDEADYYCSSYTSSSTPYVFGAGTKVTVLGSRGGGGSGGGGSGGGGSLEMAEVQLVESGGGLVQPGRSLRLSCAASGFTFDDYAMHWVRQAPGKGLEWVSGISWNSGSIGYADSVKGRFTISRDNAKNSLYLQMNSLRAEDTALYYCAKARWTAVASDHHFDYWGQGTLVTVSSTSGQAGQHHHHHHGAYPYDVPDYAS
notes: as for B1

biological target: T1, FcRL3, overexpressed on 3T3 cells; assay: phage clone on 3T3-FcRL3 cells

Row | Binder | binding result
1 | B1 | no binding
2 | B2 | no binding
3 | B3 | no binding
4 | B4 | no binding
5 | B5 | no binding
6 | B6 | no binding
7 | B7 | no binding
8 | B8 | no binding
9 | B9 | no binding
10 | B10 | no binding
11 | B11 | no binding
12 | B12 | no binding
13 | B13 | no binding
14 | B14 | no binding

biological target: T2, FcRL6, overexpressed on 3T3 cells; assay: phage clone on 3T3-FcRL6 cells

Row | Binder | binding result
15 | B1 | no binding
16 | B2 | no binding
17 | B3 | no binding
18 | B4 | no binding
19 | B5 | no binding
20 | B6 | no binding
21 | B7 | no binding
22 | B8 | no binding
23 | B9 | no binding
24 | B10 | no binding
25 | B11 | no binding
26 | B12 | no binding
27 | B13 | no binding
28 | B14 | no binding
